One may read the Kd as the constant that tells how readily two partners part at equilibrium. A high value points to a looser complex.

This is an account of results in article PMC9347351 (2022).

The target of one assay is L-pY peptide (phosphotyrosine (pY) at the fourth residue; 5-carboxyfluorescein on the N-terminus; C-terminal amide). In words: ITC. (In general: Isothermal titration calorimetry measures the heat released or taken up as one component is titrated into another.)
For another assay, the target named is T1, AS25 (synthetic construct (Homo sapiens …)).
T1 chain: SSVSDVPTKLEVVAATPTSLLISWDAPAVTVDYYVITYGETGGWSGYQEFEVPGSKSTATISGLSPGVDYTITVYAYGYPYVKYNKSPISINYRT
In words: ITC.

B1: synthetic L-Bcr-Abl SH2 domain (domain or fragment)
chain: KKKKKSGVNSLEKHSWYHGPVSRNAAEYLLSSGINGSFLVRESESSPGQRSISLRYEGRVYHYRINTASDGKLYVSSESRFNTLAELVHHHSTVADGLITTLHYPAPKRNK
modifications: biotinylated (position of the biotin not stated in the text shown)
For the molecule B1, the Kd in the assay with L-pY peptide was determined as 4.89 µM; in the assay with AS25, 0.184 µM.
